{"source": "patent US10287317B2", "about": "“Proprotein convertase subtilisin kexin type 9 (PCSK9) allosteric binding ligands to modulate serum low density lipoprotein (LDL) levels” (SRX Cardio, LLC, priority 2013, dated 2019)", "key": {"[1]": {"target": "T1, normal PCSK9 (WT) (Homo sapiens, UniProt Q8NBP7)", "T1 sequence (Q8NBP7 153-692)": "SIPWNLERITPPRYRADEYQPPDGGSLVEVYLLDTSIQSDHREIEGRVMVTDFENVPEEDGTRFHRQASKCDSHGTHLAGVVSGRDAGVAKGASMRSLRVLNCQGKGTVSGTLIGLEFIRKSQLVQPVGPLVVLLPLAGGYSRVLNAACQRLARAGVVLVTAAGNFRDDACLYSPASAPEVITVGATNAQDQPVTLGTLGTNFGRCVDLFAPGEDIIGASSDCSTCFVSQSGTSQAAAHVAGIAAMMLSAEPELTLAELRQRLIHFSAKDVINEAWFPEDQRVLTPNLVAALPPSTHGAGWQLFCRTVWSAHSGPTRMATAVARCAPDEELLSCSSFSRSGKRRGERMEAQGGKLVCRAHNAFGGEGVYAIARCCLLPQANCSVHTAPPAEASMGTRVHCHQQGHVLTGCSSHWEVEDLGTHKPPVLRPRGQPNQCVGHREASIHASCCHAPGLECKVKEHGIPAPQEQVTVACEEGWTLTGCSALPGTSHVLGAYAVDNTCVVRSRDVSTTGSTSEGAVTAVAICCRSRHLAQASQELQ", "experiment": "Cellular diI-LDL uptake in HepG2 cells with WT PCSK9", "format": "cell-based", "conditions": "HepG2, WT 1.2 ug/ml, pre-incubated 3 hrs at 37 C, dose dependent manner (FIG. 6)", "experimental": "(§1) After 16 h, dil-LDL (5 ug/ml) was added to the incubation mixtures. After 4 h, fluorescence was measured (Ex: 520 nm/Em: 575 nm; cutoff: 550 nm). Dil-LDL uptake is calculated as RFU corrected for the number of cells. The PCSK9 and −/+SRX55 [SEQ ID NO: 2] mixtures were pre-incubated for 3 hrs at 37 C prior to addition to the cells.\n(§2) LDL internalization was measured by uptake of a fluorescently tagged LDL molecule (diI-LDL) in the absence of exogenous PCSK9 (Cnt), in the presence of exogenous PCSK9 (normal PCSK9=WT, D374Y mutant PCSK9=DY), or in the presence of PCSK9 and a tested peptide (indicated as SRX##, or SRX if a single peptide results is shown in a graph). […]\n(§3) Peptide activity was assessed by culturing cells with: i) no SRX peptide/PCSK9 protein complex (control, Cnt); ii) PCSK9 protein; and iii) SRX peptide/PCSK9 complex. […]\n(§4) Cells were cultured using one of the combinations of conditions described in the preceding paragraph for 16 hours. After 16 hours, a quantity of diI-LDL (Low density lipoprotein coupled with 1,1′-dioctadecyl-3,3,3′,3′-tetramethylindocarbocyanine perchlorate) needed to bring the media concentration to 5 ug/mL of diI-LDL was added to the culture well and cells continued to be cultured under these new conditions for 4 additional hours. […] Fluorescence of the diI-LDL in the specimens were quantified using excitation at 530 nm and resulting emission at 580 nm. […]"}, "[2]": {"target": "T1, normal PCSK9 (WT)", "experiment": "Cellular diI-LDL uptake in FL-83B cells with WT PCSK9", "format": "cell-based, mouse", "conditions": "FL83B, WT 1.2 ug/ml, pre-incubated 3 hrs at 37 C, dose dependent manner (FIG. 7)", "experimental": "as §1, §2, §3, §4"}}, "note": "Where no end group is shown, it is not given here."}
{"substance": "Val-Tyr-Val-Arg-Phe-Trp (VYVRFW; not fully specified (C-terminus); printed as Val-Tyr-Val-Arg-Phe-Trp) [Compound 1]", "values": [{"measurement": "LDL internalization (dil-LDL % uptake vs Cnt)", "setting": "[1]", "value": "positively modulated (increased)"}, {"measurement": "LDL internalization (dil-LDL % uptake vs Cnt)", "setting": "[2]", "value": "positively modulated (increased)"}]}
